Earlier results, collected in paper PMC8959454.

Key:
LRP6 (Homo sapiens) = LRP6 (Homo sapiens) (UniProt O75581)
CKAP4 ECD (Homo sapiens) = CKAP4 ECD (Homo sapiens) (UniProt Q07065)
Sequence of UniProt Q07065 (Q07065 128-602): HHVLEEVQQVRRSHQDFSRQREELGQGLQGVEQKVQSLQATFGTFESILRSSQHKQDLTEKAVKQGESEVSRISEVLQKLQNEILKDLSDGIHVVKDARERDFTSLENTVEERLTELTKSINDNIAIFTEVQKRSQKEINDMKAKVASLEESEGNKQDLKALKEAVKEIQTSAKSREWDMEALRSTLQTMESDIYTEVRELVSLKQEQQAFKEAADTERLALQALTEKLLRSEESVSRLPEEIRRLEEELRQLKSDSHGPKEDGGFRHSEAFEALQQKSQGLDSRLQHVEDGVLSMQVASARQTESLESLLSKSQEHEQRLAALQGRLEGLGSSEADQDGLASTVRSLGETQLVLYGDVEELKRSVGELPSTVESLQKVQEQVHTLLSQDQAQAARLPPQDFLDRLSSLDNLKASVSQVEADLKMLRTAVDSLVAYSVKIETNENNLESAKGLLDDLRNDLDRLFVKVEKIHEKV

Sequence of UniProt O75581 (O75581 20-1370): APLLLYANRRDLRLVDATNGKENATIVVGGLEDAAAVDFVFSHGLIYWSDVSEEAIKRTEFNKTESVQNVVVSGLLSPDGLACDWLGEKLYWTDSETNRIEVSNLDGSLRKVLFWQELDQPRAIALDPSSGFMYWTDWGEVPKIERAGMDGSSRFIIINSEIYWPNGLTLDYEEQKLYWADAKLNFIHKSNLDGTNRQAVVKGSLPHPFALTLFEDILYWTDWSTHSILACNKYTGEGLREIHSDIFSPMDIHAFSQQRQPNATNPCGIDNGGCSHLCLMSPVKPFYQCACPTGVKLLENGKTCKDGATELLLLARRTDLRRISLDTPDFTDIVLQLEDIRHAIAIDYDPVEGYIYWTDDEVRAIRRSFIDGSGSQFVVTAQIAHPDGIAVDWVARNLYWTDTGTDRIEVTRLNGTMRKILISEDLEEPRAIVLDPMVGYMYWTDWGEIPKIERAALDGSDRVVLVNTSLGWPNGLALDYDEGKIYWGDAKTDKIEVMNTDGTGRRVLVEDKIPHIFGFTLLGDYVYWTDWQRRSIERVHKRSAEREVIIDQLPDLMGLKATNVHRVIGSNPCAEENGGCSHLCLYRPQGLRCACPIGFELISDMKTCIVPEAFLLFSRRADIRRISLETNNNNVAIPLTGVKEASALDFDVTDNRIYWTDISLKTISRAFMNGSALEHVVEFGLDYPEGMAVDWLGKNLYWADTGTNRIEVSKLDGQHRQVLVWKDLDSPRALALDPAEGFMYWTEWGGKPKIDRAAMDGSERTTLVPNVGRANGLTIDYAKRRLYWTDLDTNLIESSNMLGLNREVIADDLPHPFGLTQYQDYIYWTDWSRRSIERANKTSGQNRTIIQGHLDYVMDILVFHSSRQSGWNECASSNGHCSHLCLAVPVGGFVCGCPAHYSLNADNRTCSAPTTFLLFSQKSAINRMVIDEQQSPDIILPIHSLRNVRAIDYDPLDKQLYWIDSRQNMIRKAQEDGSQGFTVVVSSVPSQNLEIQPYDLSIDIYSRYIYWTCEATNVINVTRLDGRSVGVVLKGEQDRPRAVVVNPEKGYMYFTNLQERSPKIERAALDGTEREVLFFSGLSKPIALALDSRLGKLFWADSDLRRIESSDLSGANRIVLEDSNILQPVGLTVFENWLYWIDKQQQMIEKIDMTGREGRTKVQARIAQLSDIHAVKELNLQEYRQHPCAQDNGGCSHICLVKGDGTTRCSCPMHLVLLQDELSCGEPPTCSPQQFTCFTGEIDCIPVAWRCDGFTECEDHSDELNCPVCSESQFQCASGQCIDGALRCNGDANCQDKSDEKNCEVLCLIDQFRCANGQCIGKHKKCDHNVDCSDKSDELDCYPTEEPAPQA

Kd (LRP6 (Homo sapiens)): 0.42 nM
Kd (CKAP4 ECD (Homo sapiens)): 0.42 nM
Substance: DKK1 (from UniProt O94907)
